Assay results published in doi:10.1101/609735 (bioRxiv, 2019).

Target: T1, mouse FLT1-FC chimeric protein with His-tag (mouse, UniProt P35969 23-759)
T1 sequence (looked up): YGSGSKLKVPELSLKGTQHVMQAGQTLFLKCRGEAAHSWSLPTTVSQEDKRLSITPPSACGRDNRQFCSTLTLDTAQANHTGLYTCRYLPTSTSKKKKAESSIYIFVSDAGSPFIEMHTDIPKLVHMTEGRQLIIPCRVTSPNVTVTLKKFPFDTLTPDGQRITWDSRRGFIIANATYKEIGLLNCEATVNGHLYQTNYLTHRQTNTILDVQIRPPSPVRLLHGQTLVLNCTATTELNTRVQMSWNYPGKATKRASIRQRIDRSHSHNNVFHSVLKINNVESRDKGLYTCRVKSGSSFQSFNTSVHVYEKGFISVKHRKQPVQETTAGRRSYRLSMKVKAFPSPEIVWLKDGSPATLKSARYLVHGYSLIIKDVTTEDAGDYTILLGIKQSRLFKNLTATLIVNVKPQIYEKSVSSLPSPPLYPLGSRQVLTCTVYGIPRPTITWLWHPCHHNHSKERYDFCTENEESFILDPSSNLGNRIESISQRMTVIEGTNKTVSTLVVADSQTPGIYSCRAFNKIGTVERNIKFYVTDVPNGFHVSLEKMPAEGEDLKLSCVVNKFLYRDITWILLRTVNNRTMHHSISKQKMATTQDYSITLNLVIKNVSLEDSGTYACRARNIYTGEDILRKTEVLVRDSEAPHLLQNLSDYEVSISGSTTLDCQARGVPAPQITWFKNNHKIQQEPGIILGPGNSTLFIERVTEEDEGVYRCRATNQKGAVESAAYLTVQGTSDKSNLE
Assay: ELISA

- binding result: binds
B1: recombinant mouse PlGF2 (ligand, UniProt P49764 19-158, looked up)
chain: VHSQGALSAGNNSTEVEVVPFNEVWGRSYCRPMEKLVYILDEYPDEVSHIFSPSCVLLSRCSGCCGDEGLHCVPIKTANITMQILKIPPNRDPHFYVEMTFSQDVLCECRPILETTKAERRKTKGKRKRSRNSQTEEPHP
